B1: hRBD13 (antibody, V domains shown)
VH: QVQLVESGGGVVQPGRSLRLSCAVSGFTFRNYGMDWVRQAPGKGLEWVAVISYDGSNKYYADSVKGRFTISRDNSKNTLFLHLNSLRAEDTAVYYCAKAGGGPYCGGGNCYMHYFDYWGQGTQVTVSS
VL: DIQMTQSPSSLSASVGDRVTITCQASQDINNYLNWYQQKPGKAPKLLIYDASNLETGVPLRFSGSGSATHFSFTISSLQPEDIATYYCQQYDHLPCTFGQGTKLEIR
B2: hRBD10 (antibody, V domains shown)
VH: EVQLVESGGGLVQPGGSLRLSCSASGFTFTTYNMNWVRQAPGKGLEWVSYISSSSSTIYYADSVEGRFTISRDNAKNSLYLQMNSLRDEDTAVYYCARGVGATSYYYHGMDVWGQGTTVSVSS
VL: DIQMTQSPSSLSASVGDRVTITCRASQSIYSYLNWYKQKAGKAPKLLIYAASSLQSGVPSRFSGSGSGTDFTLTIISLQPEDFATYYCQQSYSTPPTFGQGTKVEIK
B3: hRBD15 (antibody, V domains shown)
VH: QVQLVQSGAEVKKPGASVKVSCKASGYTFTSQYMHWVRQAPGQGLEWMGIINPSGGSTSYAQKFQGRVTMTSDTSTSTVYMELSSLRSEDTAVYYCARDIYFVPARGGFDPWGQGTLVTVSS
VL: EIVLTQSPGTLSLSPGERATLSCRASQSIISSYLAWYQQKPGQAPRLLIYGASSRATGIPDRFSGSGSGTDFTLTISRLEPEDFAVYYCQQSGSAPRYTFGQGTKLEIK
B4: hRBD11 (antibody, V domains shown)
VH: QVQLQESGPGLVKPSQTLSLTCTVSGGSISSGGYYWSWIRQHPGKGLEWIGYIFYSGSTYYNPSLKSRVIISVDTSKNQFSLKLSSVTAADTAAYYCARVNRVYGSGSYSLDPWGQGTLVTVSS
VL: QSALTQPASVSGSPGQSITISCTGTSRDVGDYDYVSWYQQHPGKAPKLMIYEGSERPSGVSNRFSGSKSGNTASLTISGLQAEDEADYYCCSYTGSSTSFLFGTGTKVTVL
B5: hRBD14 (antibody, V domains shown)
VH: EVQLVESGGGLVQPGGSLRLSCAASGFSFSSSDMHWVRQATGKGLEWVSGIGTSGDTYYLGSVKGRFTISRDDAKNSFYLQMNSLRAGDTAVYYCARGEMAATGLWYYFDYWGQGTLVTVSS
VL: not shown
B6: mRBD2 Fab fragment (Fab, V domains shown)
VH: QVQLQQSGAELARPGASVKLSCKASGYTFISNGISWVKQRTGQGLEWIGEIYPRNGNTYYNEKFKGKATLTADKSSSTAYMELRSLTSEDSAVFFCARDYYYGSFDYWGQGTTLTVSS
VL: DIQMTQSPSSLSASLGERVSLTCRASREISGYLTWLQQKPDGTIKRLIYAASTLDSGVPKRFSGSRSGSDYSLTISSLESEDFADYYCLQYASYPWTFGGGTKLEIK

Target: receptor binding domain (RBD) of the wildtype (WT) SARS-CoV-2 spike protein (SARS-CoV-2, wildtype (sequence as in …))
Assay: not given

| Binder | binding result |
| --- | --- |
| B1 | binds |
| B2 | binds |
| B3 | binds |
| B4 | binds |
| B5 | binds |

Target: SARS-CoV-2 RBD for crystallisation (SARS-CoV-2 (wildtype), UniProt P0DTC2)
Assay: crystal structure

| Binder | binding result |
| --- | --- |
| B6 | binds |
